Results reported in patent publication WO2007124463A1 (dated 2007).

T1: mouse GLP-1 receptor (mouse, UniProt O35659 22-463)
T1 sequence (looked up): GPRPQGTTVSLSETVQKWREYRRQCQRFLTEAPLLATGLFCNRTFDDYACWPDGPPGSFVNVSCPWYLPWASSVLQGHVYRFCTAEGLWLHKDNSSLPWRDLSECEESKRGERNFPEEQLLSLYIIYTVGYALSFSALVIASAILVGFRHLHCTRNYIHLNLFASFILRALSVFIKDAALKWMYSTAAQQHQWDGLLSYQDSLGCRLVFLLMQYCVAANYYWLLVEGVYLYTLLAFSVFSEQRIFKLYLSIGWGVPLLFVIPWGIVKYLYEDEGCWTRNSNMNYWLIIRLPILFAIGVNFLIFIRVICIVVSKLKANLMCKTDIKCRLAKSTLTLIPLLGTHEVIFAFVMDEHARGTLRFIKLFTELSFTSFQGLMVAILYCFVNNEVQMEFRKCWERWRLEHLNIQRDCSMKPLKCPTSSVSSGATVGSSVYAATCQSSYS

B1: AG159LC:GLP(A2G)-AG159 IgG2 (other)
light: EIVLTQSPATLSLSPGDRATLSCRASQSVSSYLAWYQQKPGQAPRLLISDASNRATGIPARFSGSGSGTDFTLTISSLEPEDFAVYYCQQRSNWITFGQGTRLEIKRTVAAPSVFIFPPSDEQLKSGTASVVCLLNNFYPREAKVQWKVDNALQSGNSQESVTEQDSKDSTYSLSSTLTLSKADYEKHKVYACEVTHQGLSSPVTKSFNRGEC
heavy: HGEGTFTSDVSSYLEGQAAKEFIAWLVKGRGGSGSATGGSGSTASSGSGSATGGGGGGQVQLVESGGGVVQPGRSLRLSCAASGFTFSSYGMHWVRQAPGKGLEWVAVIYYDGSNKYYADSVKGRFTISRDITKNTLYLQMNSLRAEDTAVYYCARASRGFDYWGQGTLVTVSS
notes: GLP-1 peptide-antibody fusion; It was produced in CHO cells; also called GLP(A2G)-AG159 HC; AG159LC:GLP-1-AG159 IgG2; not shown: human IgG2 heavy chain constant region
B2: AG159 fully human anti-glucagon monoclonal antibody (antibody, V domains shown, not shown: a dimerising Fc or GST)
VH: QVQLVESGGGVVQPGRSLRLSCAASGFTFSSYGMHWVRQAPGKGLEWVAVIYYDGSNKYYADSVKGRFTISRDITKNTLYLQMNSLRAEDTAVYYCARASRGFDYWGQGTLVTVSS
VL: EIVLTQSPATLSLSPGDRATLSCRASQSVSSYLAWYQQKPGQAPRLLISDASNRATGIPARFSGSGSGTDFTLTISSLEPEDFAVYYCQQRSNWITFGQGTRLEIKR
notes: also called AGl 59; AG159 Ab
B3: GLP(A2G)-AG159LC:AG159 IgG2 (other)
light: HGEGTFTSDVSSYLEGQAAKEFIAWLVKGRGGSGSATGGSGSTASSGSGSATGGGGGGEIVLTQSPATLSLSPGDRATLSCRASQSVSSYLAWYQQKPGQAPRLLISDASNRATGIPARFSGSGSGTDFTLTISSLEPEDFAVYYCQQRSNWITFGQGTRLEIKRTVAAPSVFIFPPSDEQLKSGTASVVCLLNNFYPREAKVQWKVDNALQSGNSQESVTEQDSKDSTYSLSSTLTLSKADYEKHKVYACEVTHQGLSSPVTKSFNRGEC
heavy: B2 VH
notes: GLP-1 peptide-antibody fusion; also called GLP(A26)-AG159LC:AG159 IgG2; not shown: which one cannot be told, Tab

Key:
human GLP-1 receptor [1] = target: T2, human GLP-1 receptor (human, UniProt P43220 24-463); test: cell-based or functional assay
mouse GLP-1 receptor = target: T1, mouse GLP-1 receptor; test: cell-based or functional assay
human GLP-1 receptor [2] = target: T2, human GLP-1 receptor; test: displacement of 0.2 nM 125I-GLP-1 from membranes of CHOK1 cells expressing human GLP-1 receptor
glucagon [3] = target: T3, glucagon (UniProt P01275 53-81); test: cell-based or functional assay
T3 sequence (P01275 53-81): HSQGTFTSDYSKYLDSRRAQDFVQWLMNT

glucagon [4] = target: T3, glucagon; test: inhibition of 200 pM 125I-glucagon binding to crude membranes of cells expressing the glucagon receptor, dose range of AG159

| Binder | EC50 of activation, GLP-1R luciferase reporter assay (human GLP-1 receptor [1]) [nM] | EC50 of activation, GLP-1R luciferase reporter assay (mouse GLP-1 receptor) [nM] | IC50 (human GLP-1 receptor [2]) [nM] | IC50 of neutralization of glucagon stimulated luciferase reporter activity (cells expressing recombinant glucagon receptor, 0.1 nM glucagon) (glucagon [3]) [nM] | IC50 (glucagon [4]) [nM] |
| --- | --- | --- | --- | --- | --- |
| B1 | 0.1 | 5 | 5 to 10 |  |  |
| B2 |  |  |  | 4 | 0.2 |
| B3 | 0.1 | 5 | 5 to 10 |  |  |
